Laboratory results published in patent US20240270846A1 (published 2024).

B1: GLS3000 Y96H one-arm antibody (antibody, human IgG1, kappa, L234A L235A, N297A, name in Kabat numbering)
light: DIVMTQSPLSLPVTPGEPASISCRSSQSLVHSNRNTYLHWYQQKPGQAPRLLIYKVSNRFSGVPDRFSGSGSGTDFTLKISRVEAEDVGVYYCGQGTQVPHTFGQGTKLEIKRTVAAPSVFIFPPSDEQLKSGTASVVCLLNNFYPREAKVQWKVDNALQSGNSQESVTEQDSKDSTYSLSSTLTLSKADYEKHKVYACEVTHQGLSSPVTKSFNRGEC
heavy: QVQLVESGGGVVQPGRSLRLSCAASGFTFSNAWMHWVRQAPGKGLEWVAQIKAKSNNYATYYAESVKGRFTISRDDSKNSLYLQMNSLKTEDTAVYYCRYVHYGAYYGVDAWGQGTTVTVSSASTKGPSVFPLAPSSKSTSGGTAALGCLVKDYFPEPVTVSWNSGALTSGVHTFPAVLQSSGLYSLSSVVTVPSSSLGTQTYICNVNHKPSNTKVDKKVEPKSCDKTHTCPPCPAPEAAGGPSVFLFPPKPKDTLMISRTPEVTCVVVDVSHEDPEVKFNWYVDGVEVHNAKTKPREEQYASTYRVVSVLTVLHQDWLNGKEYKCKVSNKALPAPIEKTISKAKGQPREPQVYTLPPSRCELTKNQVSLSCAVKGFYPSDIAVEWESNGQPENNYKTTPPVLDSDGSFFLVSKLTVDKSRWQQGNVFSCSVMHEALHNHYTQKSLSLSPDYKDDDDK
chain: EPKSSDKTHTCPPCPAPELLGGPSVFLFPPKPKDTLMISRTPEVTCVVVDVSHEDPEVKFNWYVDGVEVHNAKTKPREEQYNSTYRVVSVLTVLHQDWLNGKEYKCKVSNKALPAPIEKTISKAKGQPREPQVCTLPPSRDELTKNQVSLWCLVKGFYPSDIAVEWESNGQPENNYKTTPPVLDSDGSFFLYSKLTVDKSRWQQGNVFSCSVMHEALHNRYTQKSLSLSP
B2: GLS3000 Y96L one-arm antibody (antibody, human IgG1, kappa, L234A L235A, N297A, name in Kabat numbering)
light: DIVMTQSPLSLPVTPGEPASISCRSSQSLVHSNRNTYLHWYQQKPGQAPRLLIYKVSNRFSGVPDRFSGSGSGTDFTLKISRVEAEDVGVYYCGQGTQVPLTFGQGTKLEIKRTVAAPSVFIFPPSDEQLKSGTASVVCLLNNFYPREAKVQWKVDNALQSGNSQESVTEQDSKDSTYSLSSTLTLSKADYEKHKVYACEVTHQGLSSPVTKSFNRGEC
heavy: QVQLVESGGGVVQPGRSLRLSCAASGFTFSNAWMHWVRQAPGKGLEWVAQIKAKSNNYATYYAESVKGRFTISRDDSKNSLYLQMNSLKTEDTAVYYCRYVHYGAYYGVDAWGQGTTVTVSSASTKGPSVFPLAPSSKSTSGGTAALGCLVKDYFPEPVTVSWNSGALTSGVHTFPAVLQSSGLYSLSSVVTVPSSSLGTQTYICNVNHKPSNTKVDKKVEPKSCDKTHTCPPCPAPEAAGGPSVFLFPPKPKDTLMISRTPEVTCVVVDVSHEDPEVKFNWYVDGVEVHNAKTKPREEQYASTYRVVSVLTVLHQDWLNGKEYKCKVSNKALPAPIEKTISKAKGQPREPQVYTLPPSRCELTKNQVSLSCAVKGFYPSDIAVEWESNGQPENNYKTTPPVLDSDGSFFLVSKLTVDKSRWQQGNVFSCSVMHEALHNHYTQKSLSLSPDYKDDDDK
chain: EPKSSDKTHTCPPCPAPELLGGPSVFLFPPKPKDTLMISRTPEVTCVVVDVSHEDPEVKFNWYVDGVEVHNAKTKPREEQYNSTYRVVSVLTVLHQDWLNGKEYKCKVSNKALPAPIEKTISKAKGQPREPQVCTLPPSRDELTKNQVSLWCLVKGFYPSDIAVEWESNGQPENNYKTTPPVLDSDGSFFLYSKLTVDKSRWQQGNVFSCSVMHEALHNRYTQKSLSLSP
B3: CE115HA000/GLS3000 N53D one-arm antibody (antibody, human IgG1, kappa, L234A L235A, N297A, name in Kabat numbering)
heavy: QVQLVESGGGVVQPGRSLRLSCAASGFTFSNAWMHWVRQAPGKGLEWVAQIKAKSNNYATYYAESVKGRFTISRDDSKNSLYLQMNSLKTEDTAVYYCRYVHYGAYYGVDAWGQGTTVTVSSASTKGPSVFPLAPSSKSTSGGTAALGCLVKDYFPEPVTVSWNSGALTSGVHTFPAVLQSSGLYSLSSVVTVPSSSLGTQTYICNVNHKPSNTKVDKKVEPKSCDKTHTCPPCPAPEAAGGPSVFLFPPKPKDTLMISRTPEVTCVVVDVSHEDPEVKFNWYVDGVEVHNAKTKPREEQYASTYRVVSVLTVLHQDWLNGKEYKCKVSNKALPAPIEKTISKAKGQPREPQVYTLPPSRCELTKNQVSLSCAVKGFYPSDIAVEWESNGQPENNYKTTPPVLDSDGSFFLVSKLTVDKSRWQQGNVFSCSVMHEALHNHYTQKSLSLSPDYKDDDDK
chain: EPKSSDKTHTCPPCPAPELLGGPSVFLFPPKPKDTLMISRTPEVTCVVVDVSHEDPEVKFNWYVDGVEVHNAKTKPREEQYNSTYRVVSVLTVLHQDWLNGKEYKCKVSNKALPAPIEKTISKAKGQPREPQVCTLPPSRDELTKNQVSLWCLVKGFYPSDIAVEWESNGQPENNYKTTPPVLDSDGSFFLYSKLTVDKSRWQQGNVFSCSVMHEALHNRYTQKSLSLSP
light: DIVMTQSPLSLPVTPGEPASISCRSSQSLVHSNRNTYLHWYQQKPGQAPRLLIYKVSDRFSGVPDRFSGSGSGTDFTLKISRVEAEDVGVYYCGQGTQVPYTFGQGTKLEIKRTVAAPSVFIFPPSDEQLKSGTASVVCLLNNFYPREAKVQWKVDNALQSGNSQESVTEQDSKDSTYSLSSTLTLSKADYEKHKVYACEVTHQGLSSPVTKSFNRGEC
notes: one-arm IgG1
B4: CE115HA000/GLS3000 F55G one-arm antibody (antibody, human IgG1, kappa, L234A L235A, N297A, name in Kabat numbering)
heavy: QVQLVESGGGVVQPGRSLRLSCAASGFTFSNAWMHWVRQAPGKGLEWVAQIKAKSNNYATYYAESVKGRFTISRDDSKNSLYLQMNSLKTEDTAVYYCRYVHYGAYYGVDAWGQGTTVTVSSASTKGPSVFPLAPSSKSTSGGTAALGCLVKDYFPEPVTVSWNSGALTSGVHTFPAVLQSSGLYSLSSVVTVPSSSLGTQTYICNVNHKPSNTKVDKKVEPKSCDKTHTCPPCPAPEAAGGPSVFLFPPKPKDTLMISRTPEVTCVVVDVSHEDPEVKFNWYVDGVEVHNAKTKPREEQYASTYRVVSVLTVLHQDWLNGKEYKCKVSNKALPAPIEKTISKAKGQPREPQVYTLPPSRCELTKNQVSLSCAVKGFYPSDIAVEWESNGQPENNYKTTPPVLDSDGSFFLVSKLTVDKSRWQQGNVFSCSVMHEALHNHYTQKSLSLSPDYKDDDDK
chain: EPKSSDKTHTCPPCPAPELLGGPSVFLFPPKPKDTLMISRTPEVTCVVVDVSHEDPEVKFNWYVDGVEVHNAKTKPREEQYNSTYRVVSVLTVLHQDWLNGKEYKCKVSNKALPAPIEKTISKAKGQPREPQVCTLPPSRDELTKNQVSLWCLVKGFYPSDIAVEWESNGQPENNYKTTPPVLDSDGSFFLYSKLTVDKSRWQQGNVFSCSVMHEALHNRYTQKSLSLSP
light: DIVMTQSPLSLPVTPGEPASISCRSSQSLVHSNRNTYLHWYQQKPGQAPRLLIYKVSNRGSGVPDRFSGSGSGTDFTLKISRVEAEDVGVYYCGQGTQVPYTFGQGTKLEIKRTVAAPSVFIFPPSDEQLKSGTASVVCLLNNFYPREAKVQWKVDNALQSGNSQESVTEQDSKDSTYSLSSTLTLSKADYEKHKVYACEVTHQGLSSPVTKSFNRGEC
notes: one-arm IgG1
B5: CE115HA000/GLS3000 F55E one-arm antibody (antibody, human IgG1, kappa, L234A L235A, N297A, name in Kabat numbering)
heavy: QVQLVESGGGVVQPGRSLRLSCAASGFTFSNAWMHWVRQAPGKGLEWVAQIKAKSNNYATYYAESVKGRFTISRDDSKNSLYLQMNSLKTEDTAVYYCRYVHYGAYYGVDAWGQGTTVTVSSASTKGPSVFPLAPSSKSTSGGTAALGCLVKDYFPEPVTVSWNSGALTSGVHTFPAVLQSSGLYSLSSVVTVPSSSLGTQTYICNVNHKPSNTKVDKKVEPKSCDKTHTCPPCPAPEAAGGPSVFLFPPKPKDTLMISRTPEVTCVVVDVSHEDPEVKFNWYVDGVEVHNAKTKPREEQYASTYRVVSVLTVLHQDWLNGKEYKCKVSNKALPAPIEKTISKAKGQPREPQVYTLPPSRCELTKNQVSLSCAVKGFYPSDIAVEWESNGQPENNYKTTPPVLDSDGSFFLVSKLTVDKSRWQQGNVFSCSVMHEALHNHYTQKSLSLSPDYKDDDDK
chain: EPKSSDKTHTCPPCPAPELLGGPSVFLFPPKPKDTLMISRTPEVTCVVVDVSHEDPEVKFNWYVDGVEVHNAKTKPREEQYNSTYRVVSVLTVLHQDWLNGKEYKCKVSNKALPAPIEKTISKAKGQPREPQVCTLPPSRDELTKNQVSLWCLVKGFYPSDIAVEWESNGQPENNYKTTPPVLDSDGSFFLYSKLTVDKSRWQQGNVFSCSVMHEALHNRYTQKSLSLSP
light: DIVMTQSPLSLPVTPGEPASISCRSSQSLVHSNRNTYLHWYQQKPGQAPRLLIYKVSNRESGVPDRFSGSGSGTDFTLKISRVEAEDVGVYYCGQGTQVPYTFGQGTKLEIKRTVAAPSVFIFPPSDEQLKSGTASVVCLLNNFYPREAKVQWKVDNALQSGNSQESVTEQDSKDSTYSLSSTLTLSKADYEKHKVYACEVTHQGLSSPVTKSFNRGEC
notes: one-arm IgG1
B6: CE115HA000/GLS3000 F55D one-arm antibody (antibody, human IgG1, kappa, L234A L235A, N297A, name in Kabat numbering)
heavy: QVQLVESGGGVVQPGRSLRLSCAASGFTFSNAWMHWVRQAPGKGLEWVAQIKAKSNNYATYYAESVKGRFTISRDDSKNSLYLQMNSLKTEDTAVYYCRYVHYGAYYGVDAWGQGTTVTVSSASTKGPSVFPLAPSSKSTSGGTAALGCLVKDYFPEPVTVSWNSGALTSGVHTFPAVLQSSGLYSLSSVVTVPSSSLGTQTYICNVNHKPSNTKVDKKVEPKSCDKTHTCPPCPAPEAAGGPSVFLFPPKPKDTLMISRTPEVTCVVVDVSHEDPEVKFNWYVDGVEVHNAKTKPREEQYASTYRVVSVLTVLHQDWLNGKEYKCKVSNKALPAPIEKTISKAKGQPREPQVYTLPPSRCELTKNQVSLSCAVKGFYPSDIAVEWESNGQPENNYKTTPPVLDSDGSFFLVSKLTVDKSRWQQGNVFSCSVMHEALHNHYTQKSLSLSPDYKDDDDK
chain: EPKSSDKTHTCPPCPAPELLGGPSVFLFPPKPKDTLMISRTPEVTCVVVDVSHEDPEVKFNWYVDGVEVHNAKTKPREEQYNSTYRVVSVLTVLHQDWLNGKEYKCKVSNKALPAPIEKTISKAKGQPREPQVCTLPPSRDELTKNQVSLWCLVKGFYPSDIAVEWESNGQPENNYKTTPPVLDSDGSFFLYSKLTVDKSRWQQGNVFSCSVMHEALHNRYTQKSLSLSP
light: DIVMTQSPLSLPVTPGEPASISCRSSQSLVHSNRNTYLHWYQQKPGQAPRLLIYKVSNRDSGVPDRFSGSGSGTDFTLKISRVEAEDVGVYYCGQGTQVPYTFGQGTKLEIKRTVAAPSVFIFPPSDEQLKSGTASVVCLLNNFYPREAKVQWKVDNALQSGNSQESVTEQDSKDSTYSLSSTLTLSKADYEKHKVYACEVTHQGLSSPVTKSFNRGEC
notes: one-arm IgG1

Target: T1, CD3 epsilon homodimer protein (UniProt P07766 23-126)
T1 construct: Construct of the homodimer is not described; also called CD3 (CD3 epsilon)
Assay: SPR Biacore T200, CD3e homodimer on chip, antibody analyte;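 also: CD3 epsilon homodimer amine-coupled on CM4 sensor chip, antibodies injected as analyte at 25 °C in HBS-EP+, ratio ≥0.8 taken as binding retained versus unaltered parent antibody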
T1 sequence (P07766 23-126): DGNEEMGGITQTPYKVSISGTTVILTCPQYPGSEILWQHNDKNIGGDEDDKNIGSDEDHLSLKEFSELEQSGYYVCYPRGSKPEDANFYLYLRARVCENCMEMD

| Binder | ratio of amounts bound (altered form/GLS3000) |
| --- | --- |
| B1 | 0.23 |
| B2 | 0.32 |

Target: T2, CD3 epsilon homodimer protein (UniProt P07766 23-126)
T2 construct: also called CD3 (CD3 epsilon)
Assay: SPR (Biacore T200), CD3e homodimer on CM4 chip, antibody as analyte; KD ratio vs unaltered GLS3000;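 also: CD3 epsilon homodimer amine-coupled to the sensor surface, antibodies injected as analyte at 25 °C with HBS-EP+ running buffer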
T2 sequence (P07766 23-126): as above

| Binder | KD ratio to GLS3000 |
| --- | --- |
| B3 | 2.8 ratio |
| B4 | 1.15 ratio |
| B5 | 0.92 ratio |
| B6 | 1.02 ratio |
